Source: patent publication US11932880B2, “Enzyme and method for assaying pentosidine using same” (priority 2018, dated 2024)

Tests used:
[1] = Measurement of L-arginine oxidation activity of hypha extract; type: biochemical; conditions: intracellular recombinant PenOX2 after anion exchange and ultrafiltration concentration
Procedure: 200 μL of each crude enzyme solution was mixed with a 380 μL of 150 mM potassium phosphate buffer solution (pH 7.0) in which 7.1 U/mL peroxidase, 0.70 mM 4-aminoantipyrine and 0.79 mM TOOS were dissolved. The resultant mixture was incubated at 37° C. for 5 minutes, and 20 μL of a 60 mM L-arginine solution was added thereto, followed by stirring, and reacting at 37° C. for 5 minutes. A change over time of A555 during the reaction was measured using a spectrophotometer (U-3900, manufactured by Hitachi High-Tech Science Corporation). A control experiment was performed by adding 20 μL of ion-exchanged water instead of 20 μL of the 60 mM L-arginine solution. An amount of the enzyme generating 1 μmol of hydrogen peroxide per minute at 37° C. was defined as one unit (U), and the activity was calculated in accordance with the following equation: Activity (U/mL)={(ΔAs−ΔA0)×0.6×df}/(39.2×0.5×0.2) • ΔAs: change of A555 per minute of reaction solution • ΔA0: change of A555 per minute of control experiment • 39.2: millimolar absorbance coefficient (mM^−1·cm^−1) of quinoneimine pigment generated through reaction • 0.5: molar number of quinoneimine pigment generated by 1 mol of hydrogen peroxide • 0.6: volume (mL) of whole reaction solution • df: dilution factor • 0.2: volume (mL) of enzyme solution

[2] = Pentosidine quantitative test (DA-67/peroxidase, A658, Bio Majesty JCA-BM1650); type: biochemical; conditions: 0.2-4.0 μM pentosidine solutions, 37° C., 5 minutes; ΔA658 correlated with final pentosidine concentration (FIG. 4)
Procedure: The following reagents were prepared to measure pentosidine by using Bio Majesty JCA-BM1650 (manufactured by JEOL Ltd.).
0.2 μM, 0.4 μM, 0.6 μM, 1.0 μM, 2.0 μM or 4.0 μM pentosidine solution
25 μL of the sample was added to 50 μL of the first reagent, and the resultant was incubated at 37° C. for 5 minutes. Then, 25 μL of the second reagent was added thereto to allow a pentosidine oxidation reaction owing to PenOX2 and a detection reaction for hydrogen peroxide generated through the reaction to proceed at 37° C. for 5 minutes.
In the detection reaction for hydrogen peroxide, simultaneously with consumption of […], DA-67 is oxidized into methylene blue to present the color, and the absorbance (A658) is increased. As an example, the relationship between the elapsed time after the mixture of the sample (4.0 μM pentosidine solution) and the first reagent and the absorbance (A658) is shown in FIG. 3. It was confirmed that A658 increased immediately after the addition of the second reagent containing PenOX2.
Subsequently, an A658 increment (AA) caused by the oxidation of pentosidine was calculated in accordance with the following equation: ΔA=(absorbance 5 min after addition of second reagent)−(absorbance immediately before addition of second reagent×0.75)

[3] = Enzyme activity measurement with pentosidine as substrate (A555 change, U/mL); type: biochemical
Procedure: (§1) 600 μL of an arbitrary buffer, 400 μL of deionized water solution in which 3.99 U/mL peroxidase, 1.8 mM 4-aminoantipyrine and 2 mM TOOS were dissolved, and 150 μL of deionized water were incubated at an arbitrary temperature for 10 minutes. Then, 50 μL of the enzyme solution having been stored on ice and 400 μL of a solution of 4 mM pentosidine dissolved in a 100 mM potassium phosphate buffer (pH 8.0) having been incubated at an arbitrary temperature for 10 minutes were added thereto, followed by stirring and reacting at an arbitrary temperature for 3 minutes. A change over time of A555 during the reaction was measured using a spectrophotometer (U-3900, manufactured by Hitachi High-Tech Science Corporation). An elapsed time from the start of the measurement of 20 seconds to 60 seconds—A555 change was regarded as an activity value.
Besides, an amount of the enzyme generating 1 μmol of hydrogen peroxide per minute at 37° C. was defined as one unite (U), and the activity was calculated in accordance with the following equation. Activity (U/mL)={(ΔAs−ΔA0)×1.6×df}/(39.2×0.5×0.05) • ΔAs: change of A555 per minute of reaction solution • ΔA0: change of A555 per minute of control experiment • 1.6: volume (mL) of whole reaction solution • df: dilution factor • 39.2: millimolar absorbance coefficient (mM^−1-cm-1) of quinoneimine pigment generated through reaction • 0.5: molar number of quinoneimine pigment generated by 1 mol of hydrogen peroxide • 0.05: volume (mL) of enzyme solution
A 50 mM citric acid-100 mM potassium phosphate buffer (pH 4.0 to 7.5, a final concentration), a potassium phosphate buffer (pH 6.5 to 8.0, a final concentration of 100 mM), and a glycine buffer (pH 8.0 to 11.0, a final concentration of 100 mM) were prepared, and these were used to perform an enzymatic reaction at respective pH at a temperature of 37° C. […] Therefore, it was determined that the optimum pH of PenOX2 is pH 6.5 to 8.0, and that the most suitable optimum pH is pH 7.5.
A potassium phosphate buffer (pH 7.5) having a final concentration of 50 mM was used to perform the activity measurement of PenOX2 at various temperatures. The highest activity was obtained around 50° C., and a temperature range for attaining 80% or more of this highest activity was 37° C. to 50° C. Therefore, it was determined that the range of the optimum temperature of PenOX2 is 37° C. to 50° C.
The above-described activity measurement method was employed to perform activity measurement using a potassium phosphate buffer (final pH in the activity measurement: pH 7.5, final concentration of 50 mM) at 37° C., and an activity value (U/mL) was obtained by using the aforementioned equation.
As described above, both PenOX1 and PenOX2 had the pentosidine oxidase activity. […] Subsequently, the following three enzymes were purchased, and the above-described activity measurement method was employed for confirming their pentosidine oxidase activity using a potassium phosphate buffer (pH 7.5, final concentration of 100 mM) at 37° C. The amino acid sequence homologies with PenOX1 and PenOX2 and the pentosidine oxidase activities of these enzymes were as follows.

[4] = Thermal stability of PenOX2 (residual activity after 10 minutes treatment); type: physicochemical; conditions: treated 10 minutes at respective temperatures; residual activity measured at pH 7.5, 37° C.; FIG. 9
Procedure: as §1
Residual activity obtained when the enzyme solution was treated for 10 minutes at respective temperatures was evaluated by performing the activity measurement described above by using a potassium phosphate buffer (final pH in the activity measurement: pH 7.5, final concentration of 100 mM) at 37° C.

[5] = Range of stable pH of PenOX2 (residual activity after 25° C., 20 hours); type: physicochemical
Procedure: as §1
Treatments were performed respectively using, as a buffer solution, a 100 mM citric acid-200 mM potassium phosphate buffer (pH 3.0 to 6.5), a 200 mM potassium phosphate buffer (pH 6.5 to 8.0) and a 200 mM glycine buffer (pH 8.0 to 10.0) at respective pH and at 25° C. for 20 hours, and then, residual activity of PenOX2 was measured.

B1: PenOX2: protein having the amino acid sequence of SEQ ID NO: 4, pentosidine oxidase from Sarocladium sp., gene g10122; recombinant from Aspergillus sojae (protein, listed as Sarocladium sp.)
chain: MFTPKAWIPLLALSREVFSNPTSASHSISFHGLLGVSSESVHNIHLTYGDAFPHGDFRVVFGDCGMTSEDELHHEVASLSTKMESAPDRLVWLVPKDVRENGCLHAFSEGVLLGRSEPVAFTEPLRKRESLSEIGDSDGLWFSGIRYLQSSNLTSVKAAEAKEKKIGIVGGGISGLMTSLLLTSVGMTNWHIIEATERVGGRIRTKYMNGTSPDDYQYQEMGPMRFPVEVKYNDTNETLPIQDHKMVFQLAEVLNEMNGNDTDLAVKFIPWTQNNPNTPANSRGYRLPDGRIPTAAQIAQNPSILPAAANASDPQDAELGKESLERLSDLTPERMRNISANIFKAHRDAIDRGLFHWSEAAYLRYQLGLDDDTVDFVAASDNYPMFPDWWHAVYFAATKWLTIDKGLDSLSRAFVPHVKDKITYGRKIEAMQWNESTSKISLSWRESPLAAAKSDEYDYAVVAVPFSKVRLWKRPAYSNLLTRAIGKLNYEQACKVALLYETRFWEHQEIPIFGGCGSVDIPGIGGVCYPSYEINSTRPGVILSSYITGTEARSVVALSEEDHVAMVQRAMVEVHGPMADEQWTGIYDRLCWEVDENAAGGWASPTVGQQELFIPAYHKTELNTIFIGEHTSITHGWIFSALESSVRGTTQLLLDLGLVDEAKQIVETWMARWITV
L-arginine oxidation activity of concentrate of purified PenOX2 solution [1]: 24 U/mL | pentosidine oxidation activity [2]: exhibits the pentosidine oxidation activity | pH of highest activity (most suitable optimum pH) ([3]; 37° C., FIG. 7): 7.5 pH | activity relative to highest activity ([3]; at 37° C. to 50° C., pH 7.5): ≥ 80% | activity relative to value in potassium phosphate buffer of around pH 7.5 ([3]; at pH 6.5 to 8.0, 37° C.): ≥ 70% | Km ([3]; pH 7.5, 50 mM potassium phosphate, 37° C., Lineweaver-Burk plot, FIG. 11): 140 µM | specific activity against pentosidine ([3]; pH 7.5, 50 mM, 37° C., protein by Bradford method): 29.1 U/mg | activity value against pentosidine ([3]; potassium phosphate buffer pH 7.5, 50 mM, 37° C.): 7.8 U/mL | temperature of highest activity ([3]; potassium phosphate buffer pH 7.5, 50 mM, FIG. 8): around 50 °C | temperature up to which enzyme was stable [4]: about 30 °C | residual activity relative to PenOX2 stored at 4° C. ([5]; pH range 4.0 to 9.0, FIG. 10): ≥ 60% | residual activity relative to PenOX2 stored at 4° C. ([5]; pH range 4.5 to 7.5, FIG. 10): ≥ 90%
